Earlier results, collected in patent US5972698A, “Tryptase inhibitor” (Novartis Corporation, priority 1993, dated 1999).

B1: soybean trypsin inhibitor: printed as 'soybean and lima bean trypsin inhibitor' (protein, UniProt P01070 25-205, looked up)
Trypsin inhibitor A: DFVLDNEGNPLENGGTYYILSDITAFGGIRAAPTGNERCPLTVVQSRNELDKGIGTIISSPYRIRFIAEGHPLSLKFDSFAVIMLCVGIPTEWSVVEDLPEGPAVKIGENKDAMDGWFRLERVSDDEFNNYKLVFCPQQAEDDKCGDIGISIDHDDGTRRLVVSKNKPLVVQFQKLDKESL
B2: ovomucoid inhibitor: proteinase inhibitor derived from non-human species (protein, UniProt P01005 25-210, looked up)
Ovomucoid: AEVDCSRFPNATDKEGKDVLVCNKDLRPICGTDGVTYTNDCLLCAYSIEFGTNISKEHDGECKETVPMNCSSYANTTSEDGKVMVLCNRAFNPVCGTDGVTYDNECLLCAHKVEQGASVDKRHDGGCRKELAAVSVDCSEYPKPDCTAEDRPLCGSDNKTYGNKCNFCNAVVESNGTLTLSHFGKC
B3: mucus-proteinaseinhibitor: naturally occurring antiproteinase (protein, UniProt P03973 26-132, looked up)
Antileukoproteinase: SGKSFKAGVCPPKKSAQCLRYKKPECQSDWQCPGKKRCCPDTCGIKCLDPVDTPNPTRRKPGKCPVTYGQCLMLNPPNFCEMDGQCKRDLKCCMGMCGKSCVSPVKA

System: Human tryptase

Molecule	inhibition of tryptase (literature)
B1	not affected
B2	not affected
B3	not inhibited
